Measured values taken from patent publication US9388406B2, “System useful for reporting protein-protein interactions in the bacterial periplasm” (Cornell University, priority 2008, dated 2016).

B1: Fos: Fos leucine zipper, fused to the ω fragment of β-lactamase; interacts with Jun (protein)
chain: LQAETDQLEDEKSALQTEIANLLKEKEKLGGGGSGGGGSGGGGSNGRTLASRQQLIDWMEADKVAGPLLRSALPAGWFIADKSGAGERGSRGIIAALGPDGKPSRIVVIYTTGSQATMDERNRQIAEIGASLIKHW
B2: GCN4-PP: double proline mutant of the GCN4 leucine zipper with reduced homodimerization, antigen of scFv-GCN4 (protein)
chain: HPETLVKVKDAEDQLGARVGYIELDLNSGKILESFRPEERFPMMSTFKVLLCGAVLSRVDAGQEQLGRRIHYSQNDLVEYSPVTEKHLTDGMTVRELCSAAITMSDNTAANLLLTTIGGPKELTAFLHNMGDHVTRLDRWEPELNEAIPNDERDTTMPAAMATTLRKLLTGELLEPKVEELLPKNYHLENEVARL
modifications: left off: small tags and cut ends

Columns and labels:
Jun [1] = target: T1, Jun (Homo sapiens, UniProt P05412); assay: split β-lactamase protein complementation assay in the periplasm, spot plating on ampicillin, Fos/Jun leucine zippers; format: cell-based; conditions: Fos on ω fragment, Jun on α fragment of Bla; negative control GCN4
Protocol: (§1) E. coli MC4100 cells were co-transformed with plasmids pDMB-P1-ωBLA (CmR) and aGS-P2 (KanR), where P1 and P2 represent proteins of interest. Cells were grown overnight at 37° C. in LB medium containing 20 μg/mL chloramphenicol (Cm) and 50 μg/mL kanamycin (Kan). Screening of cells on LB agar was performed by first normalizing overnight cultures by OD600 and then spotting 5 μL, of serially diluted (10-10^6-fold) cells on LB agar plates with […] of ampicillin (Amp). In all cases, the plates were incubated 16 h at 37° C. and then imaged using a ChemiDoc System (BioRad). […] The minimum bacteriocidal concentration was determined as the minimum Amp concentration at which no colonies appeared on the plates.
(§2) It was hypothesized that detecting protein interactions in the periplasm can be used to engineer antibody fragments with in vivo activity in the periplasm. […] The approach used in the present invention was to fuse known interacting protein domains to genes encoding two split β-lactamase fragments using a two-plasmid system (Wehrman, T., et al., “Protein-protein Interactions Monitored in Mammalian Cells Via Complementation of Beta-lactamase Enzyme Fragments,” Proc Natl Acad Sci USA 99:3469-3474 (2002), which is hereby incorporated by reference in its entirety)(see FIG. 2A). […]

Jun [2] = target: T1, Jun; conditions: Fos/Jun leucine zippers; Pernelle et al. 1993; cited from earlier work
scFv-GCN4 = assay: split β-lactamase protein complementation assay in the periplasm, MBC on ampicillin, scFv-GCN4 with antigen; format: cell-based; conditions: E. coli MC4100; antigen on α Bla fragment paired with scFv-GCN4; versus α-Jun negative control
Protocol: as §1, §2

T1 sequence (P05412 280-308 limits assumed, species assumed): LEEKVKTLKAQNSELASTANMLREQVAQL

Row | Molecule | ampicillin activity in the PCA (Jun [1]) | KD of their interaction (Jun [2]) | higher MBC (minimum bacteriocidal concentration) on ampicillin (scFv-GCN4)
1 | B1 | well above that of the negative control | nanomolar range | 
2 | B2 |  |  | 16 fold
